Columns and labels:
Assay in all cases: ELISA: SEAP-His proteins (1 nM) captured on anti-6-His antibody, antibody A 10 µg/mL with human IgG 100 µg/mL, HRP anti-mouse IgG, OD450 as % of human EphA4-SEAP-His
[1] = target: T1, human EphA3 extracellular region-SEAP-His protein (human, UniProt P29320 21-541)
T1 construct: extracellular domain; also called Eph receptor extracellular region-SEAP-His protein; not shown: secretory alkaline phosphatase (SEAP); histidine tag
T1 sequence (looked up): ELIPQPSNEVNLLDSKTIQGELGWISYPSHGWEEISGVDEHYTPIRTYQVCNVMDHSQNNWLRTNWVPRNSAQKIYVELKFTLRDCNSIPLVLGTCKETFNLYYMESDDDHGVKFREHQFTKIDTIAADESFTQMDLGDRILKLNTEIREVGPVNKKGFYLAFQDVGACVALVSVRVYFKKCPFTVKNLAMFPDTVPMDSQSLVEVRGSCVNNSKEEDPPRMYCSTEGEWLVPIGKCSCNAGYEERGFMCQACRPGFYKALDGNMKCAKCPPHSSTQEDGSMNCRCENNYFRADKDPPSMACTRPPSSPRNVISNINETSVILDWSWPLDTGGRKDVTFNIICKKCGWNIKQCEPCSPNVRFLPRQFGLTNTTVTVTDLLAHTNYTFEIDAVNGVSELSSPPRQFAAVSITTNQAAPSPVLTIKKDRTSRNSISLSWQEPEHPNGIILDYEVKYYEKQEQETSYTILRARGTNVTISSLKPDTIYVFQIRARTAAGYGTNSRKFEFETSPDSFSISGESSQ
Experimental: (§1) Rabbit anti-6-His antibodies (Bethel Laboratories) were coated onto the wells of a 96-well plate (Nunc). After incubating at 4° C. overnight, the wells were blocked at room temperature for 1 hour by 1% Block Ace (DS Pharma Biomedical). After washing 3 times with 0.05% Tween 20/PBS (Thermo […]), each Eph receptor of human extracellular region-SEAP-His protein (final concentration 1 nM) was seeded into each well, and incubated at room temperature for 1 hour. After washing 3 times, human IgG solution (100 μg/mL, Mitsubishi Pharma Corporation) and antibody A (10 μg/mL) were supplemented to the wells, and incubated at room temperature for 1 hour. Horseradish peroxidase-labeled donkey anti-mouse IgG antibody (Jackson ImmunoResearch Laboratories) was added, and incubated at room, temperature for 1 hour. After washing 3 times, TMBZ (3,3′,5,5′-tetramethylbenzidine, Sigma) solution was added to the wells, and upon confirmation of modest coloring, an equal amount of quenching solution (1 N H₂SO₄, Wako Pure Chemicals) was added to the wells, and absorbance at 450 nm was read by a microplate reader (PerkinElmer).

[2] = target: T2, human EphA5 extracellular region-SEAP-His protein (human, UniProt P54756 25-573)
T2 construct: extracellular domain; also called Eph receptor extracellular region-SEAP-His protein; not shown: secretory alkaline phosphatase (SEAP); histidine tag
T2 sequence (P54756 25-573): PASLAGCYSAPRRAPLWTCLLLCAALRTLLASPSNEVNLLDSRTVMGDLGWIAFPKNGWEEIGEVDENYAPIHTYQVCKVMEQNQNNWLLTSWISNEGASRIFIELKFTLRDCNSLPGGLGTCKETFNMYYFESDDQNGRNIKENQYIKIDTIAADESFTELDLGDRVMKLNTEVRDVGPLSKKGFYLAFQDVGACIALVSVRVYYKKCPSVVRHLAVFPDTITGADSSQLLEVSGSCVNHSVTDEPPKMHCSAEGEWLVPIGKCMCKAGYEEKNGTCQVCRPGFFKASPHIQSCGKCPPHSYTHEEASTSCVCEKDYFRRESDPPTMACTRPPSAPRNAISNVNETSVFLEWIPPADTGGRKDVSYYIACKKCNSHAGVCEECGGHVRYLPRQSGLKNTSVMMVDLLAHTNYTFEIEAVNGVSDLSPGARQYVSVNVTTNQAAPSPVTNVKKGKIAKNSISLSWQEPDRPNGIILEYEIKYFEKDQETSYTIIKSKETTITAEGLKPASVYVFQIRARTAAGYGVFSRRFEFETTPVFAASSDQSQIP
Experimental: as §1

[3] = target: T3, human EphA7 extracellular region-SEAP-His protein (human, UniProt Q15375 28-555)
T3 construct: extracellular domain; also called Eph receptor extracellular region-SEAP-His protein; not shown: secretory alkaline phosphatase (SEAP); histidine tag
T3 sequence (looked up): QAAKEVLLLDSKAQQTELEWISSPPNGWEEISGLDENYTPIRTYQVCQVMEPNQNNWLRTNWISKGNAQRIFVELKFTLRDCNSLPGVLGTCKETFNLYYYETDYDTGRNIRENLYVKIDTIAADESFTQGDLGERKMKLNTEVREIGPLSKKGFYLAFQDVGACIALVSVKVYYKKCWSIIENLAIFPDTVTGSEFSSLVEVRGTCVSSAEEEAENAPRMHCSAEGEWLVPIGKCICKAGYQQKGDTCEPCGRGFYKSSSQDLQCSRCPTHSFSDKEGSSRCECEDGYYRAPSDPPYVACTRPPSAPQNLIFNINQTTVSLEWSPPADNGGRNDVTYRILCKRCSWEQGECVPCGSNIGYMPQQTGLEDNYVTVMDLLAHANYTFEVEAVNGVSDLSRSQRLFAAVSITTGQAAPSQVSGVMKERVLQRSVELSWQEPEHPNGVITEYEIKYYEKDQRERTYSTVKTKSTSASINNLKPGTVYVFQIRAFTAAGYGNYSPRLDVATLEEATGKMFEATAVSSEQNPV
Experimental: as §1

[4] = target: T4, human EphB1 extracellular region-SEAP-His protein (human, UniProt P54762 18-540)
T4 construct: extracellular domain; also called Eph receptor extracellular region-SEAP-His protein; not shown: secretory alkaline phosphatase (SEAP); histidine tag
T4 sequence (looked up): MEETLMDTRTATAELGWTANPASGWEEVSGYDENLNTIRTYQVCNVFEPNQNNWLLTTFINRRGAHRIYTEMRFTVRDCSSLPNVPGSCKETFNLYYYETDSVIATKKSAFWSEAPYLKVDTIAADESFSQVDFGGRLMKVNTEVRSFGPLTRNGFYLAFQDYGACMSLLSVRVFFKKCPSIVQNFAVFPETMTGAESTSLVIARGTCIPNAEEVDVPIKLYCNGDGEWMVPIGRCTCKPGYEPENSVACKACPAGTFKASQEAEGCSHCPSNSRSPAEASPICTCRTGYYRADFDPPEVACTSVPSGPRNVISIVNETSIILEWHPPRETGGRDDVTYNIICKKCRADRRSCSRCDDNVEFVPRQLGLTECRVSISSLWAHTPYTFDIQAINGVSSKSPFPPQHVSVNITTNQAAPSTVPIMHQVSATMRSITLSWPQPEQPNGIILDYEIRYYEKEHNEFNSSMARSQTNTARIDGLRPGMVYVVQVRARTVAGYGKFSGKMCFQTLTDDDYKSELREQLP
Experimental: as §1

Measured: binding result

B1: mouse anti-EphA4 monoclonal antibody (antibody A) (antibody, mouse IgG1, kappa, V domains shown)
VH: QVQLKQSGPSLVQPSQSLSITCTVSGFSLTRYGVHWVRQSPGKGLEWLGVIWRGGSTDYNAAFMSRLSITKDNSKSQVFFKMNSLQADDTAIYYCAKESLFGVYYDYGYYSMDYWGQGTSVTVSS
VL: DIQMTQSPSSLSASLGERVSLTCRASQEISGYLSWLQQKPDGTIKRLIYAASTLDSGVPKRFSGSRSGSDYSLTISSLESEDFADYYCLQYASYPLTFGAGTKLELKR
notes: purified from hybridoma supernatant
no binding (tested: 10 µg/mL): all assays above

— patent publication US20240010735A1 (EISAI R AND D MANAGEMENT, published 2024)
